From PMC10419500, “FvWRKY50 is an important gene that regulates both vegetative growth and reproductive growth in strawberry”

Target: FvWRKY50-His (Fragaria vesca? (diploid strawberry; …, UniProt A0A2H4G369 6-213)
Test: EMSA; 200-fold unlabeled probe used as competitor; EMSA buffer, salt, pH and temperature not given in the material
Settings: protein: recombinant, tags: His (pET30a; also written His-FvWRKY50), blunt

Chain of FvWRKY50-His (Fragaria vesca? (A0A2H4G369 entry or part of it): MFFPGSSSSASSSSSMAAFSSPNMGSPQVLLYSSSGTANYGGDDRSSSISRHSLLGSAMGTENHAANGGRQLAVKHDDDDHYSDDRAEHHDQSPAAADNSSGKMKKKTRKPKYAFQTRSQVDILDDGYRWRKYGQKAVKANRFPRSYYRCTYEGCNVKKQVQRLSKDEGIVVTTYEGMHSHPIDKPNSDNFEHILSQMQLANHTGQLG

| Binder | binding result | binding result (label: biotin) |
| --- | --- | --- |
| proCHI probe W1610 (dsDNA) DNA 1: CTCATTTTACCAAGTTGACCCCTTCATTTG DNA 2: CAAATGAAGGGGTCAACTTGGTAAAATGAG | binds |  |
| proFT3 probe W982 (dsDNA) DNA 1: GATCCATTTCCATTGACCAGACTCACCTCAC DNA 2: GTGAGGTGAGTCTGGTCAATGGAAATGGATC |  | binds |
| proDFR probe W290 (dsDNA) DNA 1: CTTATATCCACATCTTGACCGTTCAGTTTATAG DNA 2: CTATAAACTGAACGGTCAAGATGTGGATATAAG | binds |  |
